Assay results as given in patent publication US20260001928A1 (CORTERIA PHARMACEUTICALS, priority 2022, published 2026).
*1 amine or outer side, *2 acyl side, *3 side chain or, on linkers, in order; H or OH if unused. Side-chain parts run from the residue outwards. [ ]: non-standard residue; d: D form. The star is where a group is joined. C16 diacid = O=C(O)CCCCCCCCCCCCCCC(=O)*; γGlu = O=C(O)[C@H](CCC(=O)[*:2])N[*:1]; C14 diacid = O=C(O)CCCCCCCCCCCCC(=O)*; Api = NC1(C(=O)O)CCNCC1; AEEA = NCCOCCOCC(=O)O; Aib = CC(C)(N)C(=O)O

T1: CRF1R receptor (UniProt P34998 24-415, limits assumed)
T1 sequence (looked up): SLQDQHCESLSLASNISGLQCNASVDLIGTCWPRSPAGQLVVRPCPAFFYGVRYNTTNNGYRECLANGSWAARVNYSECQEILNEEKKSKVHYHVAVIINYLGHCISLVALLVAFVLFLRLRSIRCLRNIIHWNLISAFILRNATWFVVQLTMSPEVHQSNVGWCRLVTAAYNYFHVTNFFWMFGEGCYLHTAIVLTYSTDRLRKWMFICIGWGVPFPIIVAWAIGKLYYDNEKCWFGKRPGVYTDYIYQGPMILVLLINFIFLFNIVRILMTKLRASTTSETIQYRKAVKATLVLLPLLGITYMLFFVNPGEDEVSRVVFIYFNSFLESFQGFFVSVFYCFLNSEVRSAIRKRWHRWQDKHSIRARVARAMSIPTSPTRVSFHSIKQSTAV

B1: SEQ ID NO 170 (peptide)
peptide: Ac-IVLSLD[dV]PIKLK([γGlu-C14 diacid])KILLEQEKQK[Aib]QREQAETN[Api]QILAQV-NH2
SMILES: CC[C@H](C)[C@H](NC(C)=O)C(=O)N[C@H](C(=O)N[C@@H](CC(C)C)C(=O)N[C@@H](CO)C(=O)N[C@@H](CC(C)C)C(=O)N[C@@H](CC(=O)O)C(=O)N[C@@H](C(=O)N1CCC[C@H]1C(=O)N[C@H](C(=O)N[C@@H](CCCCN)C(=O)N[C@@H](CC(C)C)C(=O)N[C@@H](CCCCNC(=O)CC[C@H](NC(=O)CCCCCCCCCCCCC(=O)O)C(=O)O)C(=O)N[C@@H](CCCCN)C(=O)N[C@H](C(=O)N[C@@H](CC(C)C)C(=O)N[C@@H](CC(C)C)C(=O)N[C@@H](CCC(=O)O)C(=O)N[C@@H](CCC(N)=O)C(=O)N[C@@H](CCC(=O)O)C(=O)N[C@@H](CCCCN)C(=O)N[C@@H](CCC(N)=O)C(=O)N[C@@H](CCCCN)C(=O)NC(C)(C)C(=O)N[C@@H](CCC(N)=O)C(=O)N[C@@H](CCCNC(=N)N)C(=O)N[C@@H](CCC(=O)O)C(=O)N[C@@H](CCC(N)=O)C(=O)N[C@@H](C)C(=O)N[C@@H](CCC(=O)O)C(=O)N[C@H](C(=O)N[C@@H](CC(N)=O)C(=O)NC1(C(=O)N[C@@H](CCC(N)=O)C(=O)N[C@H](C(=O)N[C@@H](CC(C)C)C(=O)N[C@@H](C)C(=O)N[C@@H](CCC(N)=O)C(=O)N[C@H](C(N)=O)C(C)C)[C@@H](C)CC)CCNCC1)[C@@H](C)O)[C@@H](C)CC)[C@@H](C)CC)C(C)C)C(C)C
B2: SEQ ID NO 169 (peptide)
peptide: Ac-IVLSLD[dV]PIKLK([γGlu-C14 diacid])KILLEQEKQKAQREQAETN[Api]QILAQV-NH2
SMILES: CC[C@H](C)[C@H](NC(C)=O)C(=O)N[C@H](C(=O)N[C@@H](CC(C)C)C(=O)N[C@@H](CO)C(=O)N[C@@H](CC(C)C)C(=O)N[C@@H](CC(=O)O)C(=O)N[C@@H](C(=O)N1CCC[C@H]1C(=O)N[C@H](C(=O)N[C@@H](CCCCN)C(=O)N[C@@H](CC(C)C)C(=O)N[C@@H](CCCCNC(=O)CC[C@H](NC(=O)CCCCCCCCCCCCC(=O)O)C(=O)O)C(=O)N[C@@H](CCCCN)C(=O)N[C@H](C(=O)N[C@@H](CC(C)C)C(=O)N[C@@H](CC(C)C)C(=O)N[C@@H](CCC(=O)O)C(=O)N[C@@H](CCC(N)=O)C(=O)N[C@@H](CCC(=O)O)C(=O)N[C@@H](CCCCN)C(=O)N[C@@H](CCC(N)=O)C(=O)N[C@@H](CCCCN)C(=O)N[C@@H](C)C(=O)N[C@@H](CCC(N)=O)C(=O)N[C@@H](CCCNC(=N)N)C(=O)N[C@@H](CCC(=O)O)C(=O)N[C@@H](CCC(N)=O)C(=O)N[C@@H](C)C(=O)N[C@@H](CCC(=O)O)C(=O)N[C@H](C(=O)N[C@@H](CC(N)=O)C(=O)NC1(C(=O)N[C@@H](CCC(N)=O)C(=O)N[C@H](C(=O)N[C@@H](CC(C)C)C(=O)N[C@@H](C)C(=O)N[C@@H](CCC(N)=O)C(=O)N[C@H](C(N)=O)C(C)C)[C@@H](C)CC)CCNCC1)[C@@H](C)O)[C@@H](C)CC)[C@@H](C)CC)C(C)C)C(C)C
B3: SEQ ID NO 173 (peptide)
peptide: Ac-IVLSLD[dV]PIKLK([AEEA-AEEA-γGlu-C14 diacid])KILLEQEKQK[Aib]QREQAETN[Api]QILAQV-NH2
SMILES: CC[C@H](C)[C@H](NC(C)=O)C(=O)N[C@H](C(=O)N[C@@H](CC(C)C)C(=O)N[C@@H](CO)C(=O)N[C@@H](CC(C)C)C(=O)N[C@@H](CC(=O)O)C(=O)N[C@@H](C(=O)N1CCC[C@H]1C(=O)N[C@H](C(=O)N[C@@H](CCCCN)C(=O)N[C@@H](CC(C)C)C(=O)N[C@@H](CCCCNC(=O)COCCOCCNC(=O)COCCOCCNC(=O)CC[C@H](NC(=O)CCCCCCCCCCCCC(=O)O)C(=O)O)C(=O)N[C@@H](CCCCN)C(=O)N[C@H](C(=O)N[C@@H](CC(C)C)C(=O)N[C@@H](CC(C)C)C(=O)N[C@@H](CCC(=O)O)C(=O)N[C@@H](CCC(N)=O)C(=O)N[C@@H](CCC(=O)O)C(=O)N[C@@H](CCCCN)C(=O)N[C@@H](CCC(N)=O)C(=O)N[C@@H](CCCCN)C(=O)NC(C)(C)C(=O)N[C@@H](CCC(N)=O)C(=O)N[C@@H](CCCNC(=N)N)C(=O)N[C@@H](CCC(=O)O)C(=O)N[C@@H](CCC(N)=O)C(=O)N[C@@H](C)C(=O)N[C@@H](CCC(=O)O)C(=O)N[C@H](C(=O)N[C@@H](CC(N)=O)C(=O)NC1(C(=O)N[C@@H](CCC(N)=O)C(=O)N[C@H](C(=O)N[C@@H](CC(C)C)C(=O)N[C@@H](C)C(=O)N[C@@H](CCC(N)=O)C(=O)N[C@H](C(N)=O)C(C)C)[C@@H](C)CC)CCNCC1)[C@@H](C)O)[C@@H](C)CC)[C@@H](C)CC)C(C)C)C(C)C
B4: SEQ ID NO 168 (peptide)
peptide: Ac-IVLSLD[dV]PIKLK([γGlu-C16 diacid])KILLEQEKQKEQREQAETN[Aib]QILAQV-NH2
SMILES: CC[C@H](C)[C@H](NC(C)=O)C(=O)N[C@H](C(=O)N[C@@H](CC(C)C)C(=O)N[C@@H](CO)C(=O)N[C@@H](CC(C)C)C(=O)N[C@@H](CC(=O)O)C(=O)N[C@@H](C(=O)N1CCC[C@H]1C(=O)N[C@H](C(=O)N[C@@H](CCCCN)C(=O)N[C@@H](CC(C)C)C(=O)N[C@@H](CCCCNC(=O)CC[C@H](NC(=O)CCCCCCCCCCCCCCC(=O)O)C(=O)O)C(=O)N[C@@H](CCCCN)C(=O)N[C@H](C(=O)N[C@@H](CC(C)C)C(=O)N[C@@H](CC(C)C)C(=O)N[C@@H](CCC(=O)O)C(=O)N[C@@H](CCC(N)=O)C(=O)N[C@@H](CCC(=O)O)C(=O)N[C@@H](CCCCN)C(=O)N[C@@H](CCC(N)=O)C(=O)N[C@@H](CCCCN)C(=O)N[C@@H](CCC(=O)O)C(=O)N[C@@H](CCC(N)=O)C(=O)N[C@@H](CCCNC(=N)N)C(=O)N[C@@H](CCC(=O)O)C(=O)N[C@@H](CCC(N)=O)C(=O)N[C@@H](C)C(=O)N[C@@H](CCC(=O)O)C(=O)N[C@H](C(=O)N[C@@H](CC(N)=O)C(=O)NC(C)(C)C(=O)N[C@@H](CCC(N)=O)C(=O)N[C@H](C(=O)N[C@@H](CC(C)C)C(=O)N[C@@H](C)C(=O)N[C@@H](CCC(N)=O)C(=O)N[C@H](C(N)=O)C(C)C)[C@@H](C)CC)[C@@H](C)O)[C@@H](C)CC)[C@@H](C)CC)C(C)C)C(C)C
B5: SEQ ID NO 171 (peptide)
peptide: Ac-IVLSLD[dV]PIKLK([AEEA-AEEA-γGlu-C14 diacid])KILLEQEKQKKQREQAETN[Aib]QILAQV-NH2
SMILES: CC[C@H](C)[C@H](NC(C)=O)C(=O)N[C@H](C(=O)N[C@@H](CC(C)C)C(=O)N[C@@H](CO)C(=O)N[C@@H](CC(C)C)C(=O)N[C@@H](CC(=O)O)C(=O)N[C@@H](C(=O)N1CCC[C@H]1C(=O)N[C@H](C(=O)N[C@@H](CCCCN)C(=O)N[C@@H](CC(C)C)C(=O)N[C@@H](CCCCNC(=O)COCCOCCNC(=O)COCCOCCNC(=O)CC[C@H](NC(=O)CCCCCCCCCCCCC(=O)O)C(=O)O)C(=O)N[C@@H](CCCCN)C(=O)N[C@H](C(=O)N[C@@H](CC(C)C)C(=O)N[C@@H](CC(C)C)C(=O)N[C@@H](CCC(=O)O)C(=O)N[C@@H](CCC(N)=O)C(=O)N[C@@H](CCC(=O)O)C(=O)N[C@@H](CCCCN)C(=O)N[C@@H](CCC(N)=O)C(=O)N[C@@H](CCCCN)C(=O)N[C@@H](CCCCN)C(=O)N[C@@H](CCC(N)=O)C(=O)N[C@@H](CCCNC(=N)N)C(=O)N[C@@H](CCC(=O)O)C(=O)N[C@@H](CCC(N)=O)C(=O)N[C@@H](C)C(=O)N[C@@H](CCC(=O)O)C(=O)N[C@H](C(=O)N[C@@H](CC(N)=O)C(=O)NC(C)(C)C(=O)N[C@@H](CCC(N)=O)C(=O)N[C@H](C(=O)N[C@@H](CC(C)C)C(=O)N[C@@H](C)C(=O)N[C@@H](CCC(N)=O)C(=O)N[C@H](C(N)=O)C(C)C)[C@@H](C)CC)[C@@H](C)O)[C@@H](C)CC)[C@@H](C)CC)C(C)C)C(C)C
B6: SEQ ID NO 172 (peptide)
peptide: Ac-IVLSLD[dV]PIKLK([AEEA-AEEA-γGlu-C14 diacid])KILLEQEKQKKQREQAETN[Api]QILAQV-NH2
SMILES: CC[C@H](C)[C@H](NC(C)=O)C(=O)N[C@H](C(=O)N[C@@H](CC(C)C)C(=O)N[C@@H](CO)C(=O)N[C@@H](CC(C)C)C(=O)N[C@@H](CC(=O)O)C(=O)N[C@@H](C(=O)N1CCC[C@H]1C(=O)N[C@H](C(=O)N[C@@H](CCCCN)C(=O)N[C@@H](CC(C)C)C(=O)N[C@@H](CCCCNC(=O)COCCOCCNC(=O)COCCOCCNC(=O)CC[C@H](NC(=O)CCCCCCCCCCCCC(=O)O)C(=O)O)C(=O)N[C@@H](CCCCN)C(=O)N[C@H](C(=O)N[C@@H](CC(C)C)C(=O)N[C@@H](CC(C)C)C(=O)N[C@@H](CCC(=O)O)C(=O)N[C@@H](CCC(N)=O)C(=O)N[C@@H](CCC(=O)O)C(=O)N[C@@H](CCCCN)C(=O)N[C@@H](CCC(N)=O)C(=O)N[C@@H](CCCCN)C(=O)N[C@@H](CCCCN)C(=O)N[C@@H](CCC(N)=O)C(=O)N[C@@H](CCCNC(=N)N)C(=O)N[C@@H](CCC(=O)O)C(=O)N[C@@H](CCC(N)=O)C(=O)N[C@@H](C)C(=O)N[C@@H](CCC(=O)O)C(=O)N[C@H](C(=O)N[C@@H](CC(N)=O)C(=O)NC1(C(=O)N[C@@H](CCC(N)=O)C(=O)N[C@H](C(=O)N[C@@H](CC(C)C)C(=O)N[C@@H](C)C(=O)N[C@@H](CCC(N)=O)C(=O)N[C@H](C(N)=O)C(C)C)[C@@H](C)CC)CCNCC1)[C@@H](C)O)[C@@H](C)CC)[C@@H](C)CC)C(C)C)C(C)C

Target: T1, CRF1R receptor
Test: cell-based or functional assay

Binder	Emax (% I)	EC50
B1	5%	–
B2	13%	–
B3	-1%	–
B4	3%	–
B5	0%	–
B6	-6%	–
Ac-VLSLD[dV]PIKLK([γGlu-C16 diacid])QILLKQERQKKQREQAEKNKQILEQV-NH2 [SEQ ID NO 3]	27%	> 250 nM

Target: human corticotropin-releasing factor 2a (CRF2a receptor) (human), Q13324
Sequence (Q13324 20-411): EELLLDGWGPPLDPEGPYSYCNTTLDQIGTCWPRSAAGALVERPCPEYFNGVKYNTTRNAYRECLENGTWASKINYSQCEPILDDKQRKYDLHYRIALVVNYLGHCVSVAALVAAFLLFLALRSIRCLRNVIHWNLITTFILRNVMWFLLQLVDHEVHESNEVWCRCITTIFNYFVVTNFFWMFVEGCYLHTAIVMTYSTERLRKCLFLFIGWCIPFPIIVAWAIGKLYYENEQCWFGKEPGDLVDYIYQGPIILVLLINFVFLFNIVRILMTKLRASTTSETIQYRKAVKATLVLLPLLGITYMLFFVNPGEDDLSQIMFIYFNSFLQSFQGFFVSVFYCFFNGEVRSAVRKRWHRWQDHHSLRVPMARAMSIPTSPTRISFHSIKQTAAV
Test: cell-based or functional assay

Binder	EC50 [nM] (cAMP)
B1	1.28 nM
B2	1.34 nM
B3	28.1 nM
B4	0.8 nM
B5	5.79 nM
B6	16.1 nM
Ac-VLSLD[dV]PIKLK([γGlu-C16 diacid])QILLKQERQKKQREQAEKNKQILEQV-NH2 [SEQ ID NO 3]	0.16 nM
